Molecular target: sHRPb-NLG (evolved sHRPb fused to neuroligin) (horseradish | not stated)
Test: split reporter

Substance: sHRPa-NRX (evolved sHRPa fused to neurexin)
- signal to noise ratio (fluorescence intensity relative to background): 1.5 to 13.4

From article PMC4942342
